B1: GTF0974T2: T2 C-terminal truncation of GTF0974, SEQ ID NO: 138, strain SG1305 (protein)
chain: INGKQYYVNSDGSVRKNFVFEQDGKSYYFDAETGALATKSQDEFSTEPIKATVDFSSGNQLYKNDDKSLDQLDTFITADAWYRPKSILKDGKTWTASTEADKRPLLMVWWPDKSTQVNYLNYMQNQGLGAGSFSTNSSQESLDQAAKAVQTKIEERIAREGNTNWLRTSIDQFIKTQPGWNSSTENSSYDHLQGGQLLFNNSKGDTGNRTSHANSDYRLLNRTPTNQTGTRKYFKDNSIGGLEFLLANDIDNSNPAVQAEQLNWLHFMMNIGSIMANDPTANFDGLRVDALDNVDADLLQIASDYFKAAYGVDKSEANAIKHLSYLEAWSANDPYYNKDTKGAQLPIDNALRNALTNLLMRDKNTRMQLGDMTAFINSSLNPRGANDKNGERMANYIFTRAHDTEAQTIIQRIIRDRINPNLFGYNFTRDEIKKAFEIYNEDIDKAHKTYASYNLPSVYALMLTNKDSVTRVYYGDLYREDGHYMAKKTPYFDAIDTLLRARIKYVAGGQDMEVKKVGNDGLLTSVRYGKGANNRTDLGTSETRTQGMGVIMTNNYDFRLGSNETVTMNMGRAHRNQLYRPLLLTTKDGIATYLNDSDVPKKLLKRTDWNGNLTFNANDVFGVENVQVSGYLGVWVPYGAKANQDARTQPSNRANSDGQVYKSSAALDSQVMYEAFSNFQAFADDQPELYMNRVLAKNTDLLKAWGITSVGLPPQYVSSKDGTFLDSTIDNGYAFDDRYDMALSQNNKYGSLEDLLNVLRALHKDGIQAIADWVPDQIYNLPGKEVVNATRVNGYGNHQVGYQIIDQAYVANTRTDGTDYQGKYGGAFLDELKAKYPSIFNRVQISNGKQLPTNEKITKWSAKYFNGTNILGRGINYVLRDDKTNQYFNTSANSQLLPTPLRDTGAITSTQVFQRRGQDVYFLRDNQAVKNEFVQDGNGNWYYFGGDG
modifications: T2 C-terminal truncation of GTF0974
B2: GTF0974T1: T1 C-terminal truncation of GTF0974, SEQ ID NO: 136, strain SG1304 (protein)
chain: INGKQYYVNSDGSVRKNFVFEQDGKSYYFDAETGALATKSQDEFSTEPIKATVDFSSGNQLYKNDDKSLDQLDTFITADAWYRPKSILKDGKTWTASTEADKRPLLMVWWPDKSTQVNYLNYMQNQGLGAGSFSTNSSQESLDQAAKAVQTKIEERIAREGNTNWLRTSIDQFIKTQPGWNSSTENSSYDHLQGGQLLFNNSKGDTGNRTSHANSDYRLLNRTPTNQTGTRKYFKDNSIGGLEFLLANDIDNSNPAVQAEQLNWLHFMMNIGSIMANDPTANFDGLRVDALDNVDADLLQIASDYFKAAYGVDKSEANAIKHLSYLEAWSANDPYYNKDTKGAQLPIDNALRNALTNLLMRDKNTRMQLGDMTAFINSSLNPRGANDKNGERMANYIFTRAHDTEAQTIIQRIIRDRINPNLFGYNFTRDEIKKAFEIYNEDIDKAHKTYASYNLPSVYALMLTNKDSVTRVYYGDLYREDGHYMAKKTPYFDAIDTLLRARIKYVAGGQDMEVKKVGNDGLLTSVRYGKGANNRTDLGTSETRTQGMGVIMTNNYDFRLGSNETVTMNMGRAHRNQLYRPLLLTTKDGIATYLNDSDVPKKLLKRTDWNGNLTFNANDVFGVENVQVSGYLGVWVPYGAKANQDARTQPSNRANSDGQVYKSSAALDSQVMYEAFSNFQAFADDQPELYMNRVLAKNTDLLKAWGITSVGLPPQYVSSKDGTFLDSTIDNGYAFDDRYDMALSQNNKYGSLEDLLNVLRALHKDGIQAIADWVPDQIYNLPGKEVVNATRVNGYGNHQVGYQIIDQAYVANTRTDGTDYQGKYGGAFLDELKAKYPSIFNRVQISNGKQLPTNEKITKWSAKYFNGTNILGRGINYVLRDDKTNQYFNTSANSQLLPTPLRDTGAIT
modifications: T1 C-terminal truncation of GTF0974
B3: GTF4336T1: T1 C-terminal truncation of GTF4336, SEQ ID NO: 142, strain SG1307 (protein)
chain: INGKQYYVNSDGSVRKNFVFEQDGKSYYFDAETGALATKSQDEFSTEPIKATVDFSSGNQLYKNDDKSLDQLDTFITADAWYRPKSILKDGKTWTASTEADKRPLLMVWWPDKSTQVNYLNYMQNQGLGAGSFSTNSSQESLDQAAKAVQTKIEERIAREGNTNWLRTSIDQFIKTQPGWNSSTENSSYDHLQGGQLLFNNSKGDTGNRTSHANSDYRLLNRTPTNQTGTRKYFKDNSIGGLEFLLANDIDNSNPAVQAEQLNWLHFMMNIGSIMANDPTANFDGLRVDALDNVDADLLQIASDYFKAAYGVDKSEANAIKHLSYLEAWSANDPYYNKDTKGAQLPIDNALRNALTNLLMRDKNTRMQLGDMTAFINSSLNPRGANDKNGERMANYIFTRAHDTEAQTIIQRIIRDRINPNLFGYNFTRDEIKKAFEIYNEDIDKAHKTYASYNLPSVYALMLTNKDSVTRVYYGDLYREDGHYMAKKTPYFDAIDTLLRARIKYVAGGQDMEVKKVGNDGLLTSVRYGKGANNRTDLGTSETRTQGMGVIMTNNYDFRLGSNETVTMNMGRAHRNQLYRPLLLTTKDGIATYFNDSDVPKNLLKRTDWNGNLTFNANDVFGVENVQVSGYLGVWVPVGAKANQDARTQPSNRANSDGQVYKSSAALDSQVMYEAFSNFQAFADDQPELYMNRVLAKNTDLLKAWGVTSVGLPPQYVSSKDGTFLDSTIDNGYAFDDRYDMALSQNNKYGSLEDLLNVLRALHKDGIQAIADWVPDQIYNLPGKEVVNATRVNGYGYHQQGYQIVDQAYVANTRTDGTDYQGKYGGAFLDELKAKYPSIFNRVQISNGKQLPTNEKITKWSAKYFNGTNILGRGINYVLRDDKTNQYFNTSANSQLLPTPLRDTGAIT
modifications: T1 C-terminal truncation of GTF4336
B4: GTF0974T6: T6 C-terminal truncation of GTF0974, SEQ ID NO: 140, strain SG1306 (protein)
chain: INGKQYYVNSDGSVRKNFVFEQDGKSYYFDAETGALATKSQDEFSTEPIKATVDFSSGNQLYKNDDKSLDQLDTFITADAWYRPKSILKDGKTWTASTEADKRPLLMVWWPDKSTQVNYLNYMQNQGLGAGSFSTNSSQESLDQAAKAVQTKIEERIAREGNTNWLRTSIDQFIKTQPGWNSSTENSSYDHLQGGQLLFNNSKGDTGNRTSHANSDYRLLNRTPTNQTGTRKYFKDNSIGGLEFLLANDIDNSNPAVQAEQLNWLHFMMNIGSIMANDPTANFDGLRVDALDNVDADLLQIASDYFKAAYGVDKSEANAIKHLSYLEAWSANDPYYNKDTKGAQLPIDNALRNALTNLLMRDKNTRMQLGDMTAFINSSLNPRGANDKNGERMANYIFTRAHDTEAQTIIQRIIRDRINPNLFGYNFTRDEIKKAFEIYNEDIDKAHKTYASYNLPSVYALMLTNKDSVTRVYYGDLYREDGHYMAKKTPYFDAIDTLLRARIKYVAGGQDMEVKKVGNDGLLTSVRYGKGANNRTDLGTSETRTQGMGVIMTNNYDFRLGSNETVTMNMGRAHRNQLYRPLLLTTKDGIATYLNDSDVPKKLLKRTDWNGNLTFNANDVFGVENVQVSGYLGVWVPYGAKANQDARTQPSNRANSDGQVYKSSAALDSQVMYEAFSNFQAFADDQPELYMNRVLAKNTDLLKAWGITSVGLPPQYVSSKDGTFLDSTIDNGYAFDDRYDMALSQNNKYGSLEDLLNVLRALHKDGIQAIADWVPDQIYNLPGKEVVNATRVNGYGNHQVGYQIIDQAYVANTRTDGTDYQGKYGGAFLDELKAKYPSIFNRVQISNGKQLPTNEKITKWSAKYFNGTNILGRGINYVLRDDKTNQYFNTSANSQLLPTPLRDTGAITSTQVFQRRGQDVYFLRDNQAVKNEFVQDGNGNWYYFGGDGKMTKGAQNINNKDYYFFDNGIQLRNALRRASNGYTYYYGLDGAMVKNAFVDFDDKHKQVRAFTTQG
modifications: T6 C-terminal truncation of GTF0974
B5: GTF0459nativeNT: truncated Streptococcus sp. C150 Gtf-S glucosyltransferase, SEQ ID NO: 19, strain SG1273 (protein, listed as Streptococcus sp.)
chain: MINGKQYYVNSDGSVRKNFVFEQDGKSYYFDAETGALATKSQDEFSTEPIKAAVDFSSGNQLYKNDNKSLDQLDTFITADAWYRPKSILKDGKTWTASTEADKRPLLMVWWPDKSTQVNYLNYMQNQGLGAGSFSTNSSQESLNLAAKAVQTKIEERIAREGNTNWLRTSIDQFIKTQPGWNSSTENSSYDHLQGGQLLFNNSKGDTGNRTSYANSDYRLLNRTPTNQSGTRKYFKDNSIGGLEFLLANDIDNSNPAVQAEQLNWLHFMMNIGSIMANDPTANFDGLRVDALDNVDADLLQIASDYFKAVYGVDKSEANAIKHLSYLEAWSANDPYYNKDTKGAQLPIDNALRNALTNLLMRDKNTRMQLGDMTAFMNSSLNPRGANDKNGERMANYIFTRAHDTEAQTIIQRIIRDRINPNLFGYNFTRDEIKKAFEIYNADINTAHKTYASYNLPSVYALMLTNKDSVTRVYYGDLYREDGHYMAKKTPYFDAIDTLLRARIKYVAGGQDMEVKKVGNDGLLTSVRYGKGANNSTDWGTTETRTQGMGVILTNNYDFRLGSNETVTMNMGRAHRNQLYRPLLLTTKDGLATYLNDSDVPSNLLKRTDWNGNLTFNANDVFGVENVQVSGYLGVWVPVGAKANQDARTQPSNRANSDGQVYKSSAALDSQVMYEAFSNFQAFADDQPELYMNRVLAKNTDLLKAWGVTSVGLPPQYVSSKDGTFLDSTIDNGYAFDDRYDMALSQNNKYGSLEDLLNVLRALHKDGIQAIADWVPDQIYNLPGKEVVNATRVNGYGYHQQGYQIVDQAYVANTRTDGTDYQGRYGGAFLDELKAKYPSIFNRVQISNGKQLPTNEKITKWSAKYFNGTNILGRGINYVLRDDKTNQYFNTSANGQLLPTPLRDTGAITSTQVFQRRGQDVYFLRDNQVIKNEFVQDGNGNWYYFGADGKMTKGAQNINSKDYYFFDNGVQLRNALRRASNGYTYYYGLDGAMIKNAFVDFDDKHQQVRAFTTQGTMVVGNLHWSGHHFYFDRETGIQAKDRIVRTDDGKLHYYVAQTGDMGRNVFATDSRTGKRYYFDADGNTVTGSRVIDGKTYYFNQDGSVGTAYSNRADSIIFENGKARYITPAGEIGRSIFVYNPATKAWNYFDKEGNRVTGRQYIDGNLYYFKEDGSQVKGAIVEENGIKYYYEPGSGILASGRYLQVGDDQWIYFKHDGSLAIGQVRADGGYLKYFDKNGIQVKGQTIVEDGHTYYYDADSGALVTSSFAEIAPNQWAYFNTEGQALKGKWTINGKEYYFDQNGIQYKGKAVKVGSRYKYYDENDGQPVTNRFAQIEPNVWAYFGADGYAVTGEQVINGQHLYFDQSGRQVKGAYVTVNGQRRYYDANTGEYIPGR

Experiment: GTF activity of strains (PAHBAH assay)
Type: biochemical
Settings: Experiment Number 1; enzyme expressed in B. subtilis host
How it was run: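 Glucosyltransferase (GTF) activity of the bacterial strains was measured with the PAHBAH assay. The enzymes tested were truncated GTF variants produced in a Bacillus subtilis expression host. Measurements were split across three separate experiments, and each activity value is reported together with the experiment it came from because results varied slightly between experiments.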

Compared with B1, B2 is higher in “GTF activity of strains: Acitivity” value: 7.2 U/mL for the first, 18.4 U/mL for the second.

Going from B3 to B4, the “GTF activity of strains: Acitivity” value rises from 9.4 U/mL to 33.7 U/mL.

With B5 the “GTF activity of strains: Acitivity” value was 26.5 U/mL.

Same assay, conditions: Experiment Number 2; enzyme expressed in B. subtilis host

With B5 the “GTF activity of strains: Acitivity” value was 39.4 U/mL.
